Experimental data from patent publication US20180155451A1 (published 2018).
Residue numbers refer to the chain shown, from its start.

T1: FcγRIIa R (FcγRIIa, allotype R: Arg at position 131) extracellular domain with C-terminal His tag (human, UniProt P12318 34-217)
T1 construct: extracellular domain; also called FcgRIIa R; 2aR; not shown: His tag at the C terminus
T1 sequence (looked up): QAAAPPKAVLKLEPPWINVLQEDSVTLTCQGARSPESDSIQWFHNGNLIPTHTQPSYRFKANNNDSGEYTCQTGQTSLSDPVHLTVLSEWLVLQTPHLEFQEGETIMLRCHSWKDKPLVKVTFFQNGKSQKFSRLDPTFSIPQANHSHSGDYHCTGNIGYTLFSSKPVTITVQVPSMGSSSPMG

T2: FcγRIIb extracellular domain with C-terminal His tag (human, UniProt P31994 43-217)
T2 construct: extracellular domain; also called FcgRIIb; 2b; not shown: His tag at the C terminus
T2 sequence (looked up): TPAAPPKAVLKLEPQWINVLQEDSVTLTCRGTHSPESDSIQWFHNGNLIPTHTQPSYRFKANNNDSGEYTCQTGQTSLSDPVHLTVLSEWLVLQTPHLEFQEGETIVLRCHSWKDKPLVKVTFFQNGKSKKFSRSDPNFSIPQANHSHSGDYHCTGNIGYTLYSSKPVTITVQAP

T3: FcγRIIa H (human, UniProt P12318 34-217)
T3 construct: extracellular domain; also called FcgRIIa H; FcγRIIa type H; not shown: His tag attached to the C terminus
T3 sequence (looked up): T1 sequence (looked up) with R134H

T4: FcγRIIb (human, UniProt P31994 43-217)
T4 construct: extracellular domain; also called FcgRIIb; 2b; not shown: His tag attached to the C terminus
T4 sequence (looked up): T2 sequence (looked up)

B1: GpH7-A5/GpH7-B3 variant G236_12R/GpL16-k0 (antibody, human IgG1, kappa)
heavy 1: not shown
heavy 2: not shown
light: DIVMTQSPLSLPVTPGEPASISCQASESLVHSNRNTYLHWYLQKPGQSPQLLIYKVSNRFSGVPDRFSGSGSGTDFTLKISRVEAEDVGVYYCSQNTHVPPTFGQGTKVEIERTVAAPSVFIFPPSDEQLKSGTASVVCLLNNFYPREAKVQWKVDNALQSGNSQESVTEQDSKDSTYSLSSTLTLSKADYEKHKVYACEVTHQGLSSPVTKSFNRGEC
notes: He Ab: alteration in the GpH7-B3 H chain only; also called He Ab
B2: GpH7-A5/GpH7-B3 variant G236_02A/GpL16-k0 (antibody, human IgG1, kappa)
heavy 1: not shown
heavy 2: not shown
light: B1 light
notes: Heterodimerized IgG1, mutation in the GpH7-B3 chain only; also called He Ab
B3: GpH7-A5/GpH7-B3 variant G236_15Y/GpL16-k0 (antibody, human IgG1, kappa)
heavy 1: not shown
heavy 2: not shown
light: B1 light
notes: as for B1
B4: GpH7-A5/GpH7-B3 variant L235_19Q/GpL16-k0 (antibody, human IgG1, kappa)
heavy 1: not shown
heavy 2: not shown
light: B1 light
notes: as for B1
B5: GpH7-A5/GpH7-B3 variant L234_01G/GpL16-k0 (antibody, human IgG1, kappa)
heavy 1: not shown
heavy 2: not shown
light: B1 light
notes: as for B1
B6: GpH7-A5/GpH7-B3 variant D265_03V/GpL16-k0 (antibody, human IgG1, kappa)
heavy 1: not shown
heavy 2: not shown
light: B1 light
notes: as for B2
B7: GpH7-A5/GpH7-B3 variant L234_02A/GpL16-k0 (antibody, human IgG1, kappa)
heavy 1: not shown
heavy 2: not shown
light: B1 light
notes: as for B1
B8: GpH7-A5/GpH7-B3 variant L235_18N/GpL16-k0 (antibody, human IgG1, kappa)
heavy 1: not shown
heavy 2: not shown
light: B1 light
notes: as for B1
B9: GpH7-A5/GpH7-B3 variant P238_01G/GpL16-k0 (antibody, human IgG1, kappa)
heavy 1: not shown
heavy 2: not shown
light: B1 light
notes: as for B1
B10: GpH7-A5/GpH7-B3 variant G236_20W/GpL16-k0 (antibody, human IgG1, kappa)
heavy 1: not shown
heavy 2: not shown
light: B1 light
notes: as for B1
B11: GpH7-A5/GpH7-B3 variant G237_05P/GpL16-k0 (antibody, human IgG1, kappa)
heavy 1: not shown
heavy 2: not shown
light: B1 light
notes: as for B1
B12: GpH7-A5/GpH7-B3 variant G237_16H/GpL16-k0 (antibody, human IgG1, kappa)
heavy 1: not shown
heavy 2: not shown
light: B1 light
notes: as for B1
B13: GpH7-A5/GpH7-B3 variant L235_11K/GpL16-k0 (antibody, human IgG1, kappa)
heavy 1: not shown
heavy 2: not shown
light: B1 light
notes: as for B1
B14: GpH7-A5/GpH7-B3 variant L234_11K/GpL16-k0 (antibody, human IgG1, kappa)
heavy 1: not shown
heavy 2: not shown
light: B1 light
notes: as for B1
B15: GpH7-A5/GpH7-B3 variant G236_13S/GpL16-k0 (antibody, human IgG1, kappa)
heavy 1: not shown
heavy 2: not shown
light: B1 light
notes: as for B1
B16: GpH7-A5/GpH7-B3 variant D265_02A/GpL16-k0 (antibody, human IgG1, kappa)
heavy 1: not shown
heavy 2: not shown
light: B1 light
notes: as for B2

Legend:
[1] = target: T1, FcγRIIa R (FcγRIIa, allotype R: Arg at …); assay: ratio He/Con_2aR : He/Con_2b (FcgRIIa R over FcgRIIb), SPR Biacore
Procedure: The heterodimerized antibodies He Abs in which one of the H chains was introduced with an alteration were assayed for their binding activities to each activating FcγR and inhibitory FcγR according to the method described in Example 4. […] The activating FcγRs in FIGS. 26, 27, 28, and 29 are FcγRIa, FcγRIIa (R), FcγRIIa (H), and FcγRIIIa, respectively.
Analysis of interaction between objective antibody and the FcγR was carried out using Biacore T100 (GE Healthcare). HBS-EP+ (GE Healthcare) was used as the running buffer, and the measurement temperature was set to 25° C. Chips produced by immobilizing the antigen peptide by the amine coupling method to a Series S Sencor Chip CM5 (GE Healthcare), or alternatively, chips produced by allowing preliminarily biotinylated antigen peptides to interact with and immobilize onto a Series S Sensor Chip SA (certified) (GE Healthcare) were used. Antibodies of interest were captured onto an antigen peptide-immobilized chip, and allowed to interact to each FcγR diluted with running buffer. To regenerate and repeatedly use the chip, the antibodies captured on the chip were washed off by reacting 10 mM glycine-HCl, pH 1.5.

[2] = target: T1, FcγRIIa R (FcγRIIa, allotype R: Arg at …); assay: SPR Biacore, antibody captured, FcgR analyte; vs HeCon Ab GpH7-A5/GpH7-B3/GpL16-k0 = 100
[3] = target: T2, FcγRIIb extracellular domain with …; assay: as above
FcγRIIa H [4] = target: T3, FcγRIIa H; assay: ratio of He/Con_2aH to He/Con_2b (relative SPR binding to FcγRIIa H over FcγRIIb)
FcγRIIa H [5] = target: T3, FcγRIIa H; assay: SPR (Biacore), antibody captured, FcγR as analyte; binding relative to GpH7-A5/GpH7-B3/GpL16-k0 = 100
FcγRIIb = target: T4, FcγRIIb; assay: as above

| Binder | He_2aR/2b (IIaR/IIb) [1] | He/Con_2aR [2] | He/Con_2b [3] | He_2aH/2b (IIaH/IIb) (FcγRIIa H [4]) | He/Con_2aH (FcγRIIa H [5]) | He/Con_2b (FcγRIIb) |
| --- | --- | --- | --- | --- | --- | --- |
| B1 | 3.55 | 24.1 control = 100 | 6.8 control = 100 | – | – | – |
| B2 | – | – | – | 1.44 | 139 control = 100 | 96.5 control = 100 |
| B3 | 1.48 | 58.6 control = 100 | 39.5 control = 100 | – | – | – |
| B4 | 1.32 | 56.2 control = 100 | 42.6 control = 100 | – | – | – |
| B5 | 1.23 | 62.3 control = 100 | 50.7 control = 100 | – | – | – |
| B6 | – | – | – | 1.42 | 4.6 control = 100 | 3.2 control = 100 |
| B7 | 1.23 | 79.6 control = 100 | 64.9 control = 100 | – | – | – |
| B8 | 1.21 | 66.5 control = 100 | 54.9 control = 100 | – | – | – |
| B9 | 1.34 | 75 control = 100 | 56 control = 100 | – | – | – |
| B10 | 1.34 | 77.9 control = 100 | 58.2 control = 100 | – | – | – |
| B11 | 1.4 | 34.5 control = 100 | 24.6 control = 100 | – | – | – |
| B12 | 1.35 | 74.5 control = 100 | 55.2 control = 100 | – | – | – |
| B13 | 1.72 | 10.8 control = 100 | 6.3 control = 100 | – | – | – |
| B14 | 1.66 | 26.8 control = 100 | 16.2 control = 100 | – | – | – |
| B15 | 1.41 | 136 control = 100 | 96.7 control = 100 | – | – | – |
| B16 | – | – | – | 1.58 | 31.3 control = 100 | 19.9 control = 100 |
